Reference: PMC5241739, “Structure of the Toll/Interleukin-1 Receptor (TIR) Domain of the B-cell Adaptor That Links Phosphoinositide Metabolism with the Negative Regulation of the Toll-like Receptor (TLR) Signalosome*^([image sbox.jpg])” (The Journal of Biological Chemistry, 2016)

B1: BCAPS, splice variant of BCAP (natural protein, human, UniProt Q6ZUJ8-2 1-627, looked up)
chain: MVVQPDRIRCGAETTVYVIVRCKLDDRVATEAEFSPEDSPSVRMEAKVENEYTISVKAPNLSSGNVSLKIYSGDLVVCETVISYYTDMEEIGNLLSNAANPVEFMCQAFKIVPYNTETLDKLLTESLKNNIPASGLHLFGINQLEEEDMMTNQRDEELPTLLHFAAKYGLKNLTALLLTCPGALQAYSVANKHGHYPNTIAEKHGFRDLRQFIDEYVETVDMLKSHIKEELMHGEEADAVYESMAHLSTDLLMKCSLNPGCDEDLYESMAAFVPAATEDLYVEMLQASTSNPIPGDGFSRATKDSMIRKFLEGNSMGMTNLERDQCHLGQEEDVYHTVDDDEAFSVDLASRPPVPVPRPETTAPGAHQLPDNEPYIFKVFAEKSQERPGNFYVSSESIRKGPPVRPWRDRPQSSIYDPFAGMKTPGQRQLITLQEQVKLGIVNVDEAVLHFKEWQLNQKKRSESFRFQQENLKRLRDSITRRQREKQKSGKQTDLEITVPIRHSQHLPAKVEFGVYESGPRKSVIPPRTELRRGDWKTDSTSSTASSTSNRSSTRSLLSVSSGMEGDNEDNEVPEVTRSRSPGPPQVDGTPTMSLERPPRVPPRAASQRPPTRETFHPPPPVPPRGR
notes: The first residue is worked out from the legend's words 'lacks the first 180 amino acids'; source: cloned into pMCSG7, purified (StrepTrap, S200 size exclusion)
B2: Full-length BCAP, BCAPL (1–805) (natural protein, human, UniProt Q6ZUJ8-1 1-805, looked up)
chain: MAASGVPRGCDILIVYSPDAEEWCQYLQTLFLSSRQVRSQKILTHRLGPEASFSAEDLSLFLSTRCVVVLLSAELVQHFHKPALLPLLQRAFHPPHRVVRLLCGVRDSEEFLDFFPDWAHWQELTCDDEPETYVAAVKKAISEDSGCDSVTDTEPEDEKVVSYSKQQNLPTVTSPGNLMVVQPDRIRCGAETTVYVIVRCKLDDRVATEAEFSPEDSPSVRMEAKVENEYTISVKAPNLSSGNVSLKIYSGDLVVCETVISYYTDMEEIGNLLSNAANPVEFMCQAFKIVPYNTETLDKLLTESLKNNIPASGLHLFGINQLEEEDMMTNQRDEELPTLLHFAAKYGLKNLTALLLTCPGALQAYSVANKHGHYPNTIAEKHGFRDLRQFIDEYVETVDMLKSHIKEELMHGEEADAVYESMAHLSTDLLMKCSLNPGCDEDLYESMAAFVPAATEDLYVEMLQASTSNPIPGDGFSRATKDSMIRKFLEGNSMGMTNLERDQCHLGQEEDVYHTVDDDEAFSVDLASRPPVPVPRPETTAPGAHQLPDNEPYIFKVFAEKSQERPGNFYVSSESIRKGPPVRPWRDRPQSSIYDPFAGMKTPGQRQLITLQEQVKLGIVNVDEAVLHFKEWQLNQKKRSESFRFQQENLKRLRDSITRRQREKQKSGKQTDLEITVPIRHSQHLPAKVEFGVYESGPRKSVIPPRTELRRGDWKTDSTSSTASSTSNRSSTRSLLSVSSGMEGDNEDNEVPEVTRSRSPGPPQVDGTPTMSLERPPRVPPRAASQRPPTRETFHPPPPVPPRGR
notes: B-cell adaptor for phosphoinositide 3-kinase (BCAP), human, full-length form BCAPL, residues 1-805; Cloned into the same vector as the His6-tagged TIR domain; source: cloned into pMCSG7, purified (StrepTrap, S200 size exclusion)
B3: BCAP330, the first 330 residues of BCAPL (domain or fragment, human, UniProt Q6ZUJ8-1 1-330, looked up)
chain: MAASGVPRGCDILIVYSPDAEEWCQYLQTLFLSSRQVRSQKILTHRLGPEASFSAEDLSLFLSTRCVVVLLSAELVQHFHKPALLPLLQRAFHPPHRVVRLLCGVRDSEEFLDFFPDWAHWQELTCDDEPETYVAAVKKAISEDSGCDSVTDTEPEDEKVVSYSKQQNLPTVTSPGNLMVVQPDRIRCGAETTVYVIVRCKLDDRVATEAEFSPEDSPSVRMEAKVENEYTISVKAPNLSSGNVSLKIYSGDLVVCETVISYYTDMEEIGNLLSNAANPVEFMCQAFKIVPYNTETLDKLLTESLKNNIPASGLHLFGINQLEEEDMMTN
notes: B-cell adaptor for phosphoinositide 3-kinase (BCAP), human, the N-terminal 330 residues (TIR and DBB domains); also called N-terminal variant; source: cloned into pMCSG7, purified (StrepTrap, S200 size exclusion)

Target: the molecule itself
Experiment: AUC; sedimentation velocity, Beckman XL-A, 0.3 to 1 mg/ml, 30,000–40,000 rpm, c(S) and c(M) analysis with SEDFIT

Row | Protein | stoichiometry N
1 | B1 | 2
2 | B2 | 2
3 | B3 | 2
